Reference: the supplement of paper PMC9112550, “Optimization of the antimicrobial peptide Bac7 by deep mutational scanning” (BMC Biology, 2022)

System: Escherichia coli TOP10
Assay: shrunken log2 fold change of peptide-encoding DNA abundance (4.5 h post-induction vs induction); higher = less antimicrobial activity (less host growth inhibition)
Conditions: time post-induction: 4.5 h; library: site-saturation at positions 5, 18, 19, 20
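Further: peptides expressed intracellularly from a pBAD plasmid library in pooled LB shake-flask culture, induced with 0.3% L-arabinose, DNA abundance read by NGS, three biological replicates, DESeq2 with apeglm shrinkage.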

Row | Sequence | shrunken log2 fold change
1 | RRIRIRPPRLPRPRPRPVYSPRP | -0.102
2 | RRIRIRPPRLPRPRPRPWAWPRP | -0.00783
3 | RRIRIRPPRLPRPRPRPWDDPRP | -0.391
4 | RRIRIRPPRLPRPRPRPWDVPRP | -0.468
5 | RRIRIRPPRLPRPRPRPWFFPRP | -0.198
6 | RRIRIRPPRLPRPRPRPWFVPRP | -0.578
7 | RRIRIRPPRLPRPRPRPWFYPRP | -0.161
8 | RRIRIRPPRLPRPRPRPWGEPRP | -0.0259
9 | RRIRIRPPRLPRPRPRPWHIPRP | 0.0542
10 | RRIRIRPPRLPRPRPRPWIMPRP | -0.735
11 | RRIRIRPPRLPRPRPRPWLEPRP | -0.293
12 | RRIRIRPPRLPRPRPRPWMDPRP | 0.0312
13 | RRIRIRPPRLPRPRPRPWMKPRP | -0.305
14 | RRIRIRPPRLPRPRPRPWMLPRP | -0.13
15 | RRIRIRPPRLPRPRPRPWQLPRP | -0.0817
16 | RRIRIRPPRLPRPRPRPWTTPRP | -0.102
17 | RRIRIRPPRLPRPRPRPWWSPRP | -0.0718
18 | RRIRIRPPRLPRPRPRPYCFPRP | -0.834
19 | RRIRIRPPRLPRPRPRPYCNPRP | -0.154
20 | RRIRIRPPRLPRPRPRPYCRPRP | 0.182
21 | RRIRIRPPRLPRPRPRPYDQPRP | -0.295
22 | RRIRIRPPRLPRPRPRPYEFPRP | 0.00826
23 | RRIRIRPPRLPRPRPRPYEQPRP | -0.868
24 | RRIRIRPPRLPRPRPRPYGQPRP | -0.284
25 | RRIRIRPPRLPRPRPRPYGTPRP | -0.894

Row | Sequence | shrunken log2 fold change
26 | RRIRIRPPRLPRPRPRPYHKPRP | -0.165
27 | RRIRIRPPRLPRPRPRPYHSPRP | -0.00112
28 | RRIRIRPPRLPRPRPRPYHVPRP | -0.186
29 | RRIRIRPPRLPRPRPRPYHWPRP | -0.275
30 | RRIRIRPPRLPRPRPRPYKEPRP | 0.0131
31 | RRIRIRPPRLPRPRPRPYKHPRP | -1.57
32 | RRIRIRPPRLPRPRPRPYKIPRP | -0.688
33 | RRIRIRPPRLPRPRPRPYMAPRP | -0.281
34 | RRIRIRPPRLPRPRPRPYQSPRP | -0.0409
35 | RRIRIRPPRLPRPRPRPYRDPRP | -0.0075
36 | RRIRIRPPRLPRPRPRPYTDPRP | -0.0335
37 | RRIRIRPPRLPRPRPRPYTSPRP | -0.434
38 | RRIRIRPPRLPRPRPRPYVIPRP | -0.017
39 | RRIRIRPPRLPRPRPRPYVMPRP | -0.274
40 | RRIRIRPPRLPRPRPRPYVWPRP | -1.33
41 | RRIRIRPPRLPRPRPRPYWFPRP | -0.112
42 | RRIRIRPPRLPRPRPRPYYGPRP | -2.94
43 | RRIRIRPPRLPRPRPRPYYQPRP | -0.296
44 | RRIRKRPPRLPRPRPRPACTPRP | 0.219
45 | RRIRKRPPRLPRPRPRPADFPRP | 0.344
46 | RRIRKRPPRLPRPRPRPADHPRP | 0.111
47 | RRIRKRPPRLPRPRPRPADIPRP | -0.075
48 | RRIRKRPPRLPRPRPRPAFYPRP | 0.114
49 | RRIRKRPPRLPRPRPRPAHRPRP | 0.562
50 | RRIRKRPPRLPRPRPRPAHYPRP | 0.123

Row | Sequence | shrunken log2 fold change
51 | RRIRKRPPRLPRPRPRPAIAPRP | 0.802
52 | RRIRKRPPRLPRPRPRPAIWPRP | 0.463
53 | RRIRKRPPRLPRPRPRPAKAPRP | 0.106
54 | RRIRKRPPRLPRPRPRPALAPRP | 0.885
55 | RRIRKRPPRLPRPRPRPALCPRP | 0.146
56 | RRIRKRPPRLPRPRPRPAMCPRP | 0.059
57 | RRIRKRPPRLPRPRPRPAPAPRP | 1.05
58 | RRIRKRPPRLPRPRPRPAPKPRP | 1.06
59 | RRIRKRPPRLPRPRPRPASMPRP | 0.116
60 | RRIRKRPPRLPRPRPRPASRPRP | 0.519
61 | RRIRKRPPRLPRPRPRPATDPRP | 0.00132
62 | RRIRKRPPRLPRPRPRPATLPRP | 0.312
63 | RRIRKRPPRLPRPRPRPAVRPRP | 0.951
64 | RRIRKRPPRLPRPRPRPAVYPRP | -0.0285
65 | RRIRKRPPRLPRPRPRPAWDPRP | 0.497
66 | RRIRKRPPRLPRPRPRPAWKPRP | -0.116
67 | RRIRKRPPRLPRPRPRPAYMPRP | 0.0668
68 | RRIRKRPPRLPRPRPRPCAYPRP | -0.0475
69 | RRIRKRPPRLPRPRPRPCDEPRP | 0.121
70 | RRIRKRPPRLPRPRPRPCENPRP | 0.0184
71 | RRIRKRPPRLPRPRPRPCFLPRP | -0.0702
72 | RRIRKRPPRLPRPRPRPCGLPRP | 0.933
73 | RRIRKRPPRLPRPRPRPCIKPRP | 0.193
74 | RRIRKRPPRLPRPRPRPCLEPRP | 0.0959
75 | RRIRKRPPRLPRPRPRPCLHPRP | -0.0515

Row | Sequence | shrunken log2 fold change
76 | RRIRKRPPRLPRPRPRPCNMPRP | -0.0983
77 | RRIRKRPPRLPRPRPRPCNVPRP | -0.192
78 | RRIRKRPPRLPRPRPRPCPCPRP | 0.00911
79 | RRIRKRPPRLPRPRPRPCPQPRP | 0.242
80 | RRIRKRPPRLPRPRPRPCPSPRP | -0.0812
81 | RRIRKRPPRLPRPRPRPCQCPRP | -0.0903
82 | RRIRKRPPRLPRPRPRPCQFPRP | -0.117
83 | RRIRKRPPRLPRPRPRPCRGPRP | -0.115
84 | RRIRKRPPRLPRPRPRPCSGPRP | 0.00663
85 | RRIRKRPPRLPRPRPRPCSRPRP | 0.015
86 | RRIRKRPPRLPRPRPRPCTLPRP | 0.0143
87 | RRIRKRPPRLPRPRPRPCYMPRP | -0.195
88 | RRIRKRPPRLPRPRPRPDANPRP | -0.0872
89 | RRIRKRPPRLPRPRPRPDCCPRP | 0.435
90 | RRIRKRPPRLPRPRPRPDCGPRP | 0.016
91 | RRIRKRPPRLPRPRPRPDDEPRP | 0.143
92 | RRIRKRPPRLPRPRPRPDDTPRP | 2.31
93 | RRIRKRPPRLPRPRPRPDEGPRP | -0.01
94 | RRIRKRPPRLPRPRPRPDGAPRP | 0.632
95 | RRIRKRPPRLPRPRPRPDGPPRP | 0.022
96 | RRIRKRPPRLPRPRPRPDHFPRP | 0.0027
97 | RRIRKRPPRLPRPRPRPDHMPRP | 0.0864
98 | RRIRKRPPRLPRPRPRPDHPPRP | 0.0127
99 | RRIRKRPPRLPRPRPRPDIKPRP | 0.137
100 | RRIRKRPPRLPRPRPRPDILPRP | 0.0039

Row | Sequence | shrunken log2 fold change
101 | RRIRKRPPRLPRPRPRPDKSPRP | 0.0207
102 | RRIRKRPPRLPRPRPRPDKWPRP | 0.429
103 | RRIRKRPPRLPRPRPRPDLDPRP | 0.109
104 | RRIRKRPPRLPRPRPRPDLSPRP | -0.0341
105 | RRIRKRPPRLPRPRPRPDMDPRP | 0.0224
106 | RRIRKRPPRLPRPRPRPDNSPRP | -0.00848
107 | RRIRKRPPRLPRPRPRPDQHPRP | -0.0427
108 | RRIRKRPPRLPRPRPRPDRCPRP | 0.00281
109 | RRIRKRPPRLPRPRPRPDREPRP | 0.186
110 | RRIRKRPPRLPRPRPRPDSSPRP | 0.0149
111 | RRIRKRPPRLPRPRPRPDTTPRP | 0.0419
112 | RRIRKRPPRLPRPRPRPDVFPRP | -0.162
113 | RRIRKRPPRLPRPRPRPDWGPRP | 2.83
114 | RRIRKRPPRLPRPRPRPDYIPRP | -0.0117
115 | RRIRKRPPRLPRPRPRPDYSPRP | -0.168
116 | RRIRKRPPRLPRPRPRPEAEPRP | 3.31
117 | RRIRKRPPRLPRPRPRPECLPRP | 0.182
118 | RRIRKRPPRLPRPRPRPECNPRP | 0.0503
119 | RRIRKRPPRLPRPRPRPECSPRP | 0.854
120 | RRIRKRPPRLPRPRPRPEDRPRP | 0.206
121 | RRIRKRPPRLPRPRPRPEEDPRP | 0.0229
122 | RRIRKRPPRLPRPRPRPEFTPRP | 0.738
123 | RRIRKRPPRLPRPRPRPEGMPRP | 0.194
124 | RRIRKRPPRLPRPRPRPEKFPRP | -0.0568
125 | RRIRKRPPRLPRPRPRPEKHPRP | 0.401

Row | Sequence | shrunken log2 fold change
126 | RRIRKRPPRLPRPRPRPEKTPRP | -0.000942
127 | RRIRKRPPRLPRPRPRPEMTPRP | 2.82
128 | RRIRKRPPRLPRPRPRPENIPRP | -0.0813
129 | RRIRKRPPRLPRPRPRPENLPRP | 3.46
130 | RRIRKRPPRLPRPRPRPENNPRP | 0.179
131 | RRIRKRPPRLPRPRPRPEQNPRP | 0.949
132 | RRIRKRPPRLPRPRPRPERNPRP | 0.683
133 | RRIRKRPPRLPRPRPRPESKPRP | 0.727
134 | RRIRKRPPRLPRPRPRPETRPRP | 0.269
135 | RRIRKRPPRLPRPRPRPETVPRP | 0.0854
136 | RRIRKRPPRLPRPRPRPEVEPRP | 2.8
137 | RRIRKRPPRLPRPRPRPFADPRP | 0.00902
138 | RRIRKRPPRLPRPRPRPFCNPRP | 0.128
139 | RRIRKRPPRLPRPRPRPFCYPRP | -0.14
140 | RRIRKRPPRLPRPRPRPFDFPRP | 0.0615
141 | RRIRKRPPRLPRPRPRPFDSPRP | -0.0504
142 | RRIRKRPPRLPRPRPRPFFPPRP | 0.967
143 | RRIRKRPPRLPRPRPRPFFVPRP | 0.461
144 | RRIRKRPPRLPRPRPRPFGHPRP | -0.00208
145 | RRIRKRPPRLPRPRPRPFGIPRP | -0.00674
146 | RRIRKRPPRLPRPRPRPFGRPRP | -0.209
147 | RRIRKRPPRLPRPRPRPFICPRP | 0.0135
148 | RRIRKRPPRLPRPRPRPFIIPRP | -0.268
149 | RRIRKRPPRLPRPRPRPFLDPRP | 0.0893
150 | RRIRKRPPRLPRPRPRPFLTPRP | -0.206
